Measured values published in article PMC3276066.

Target: Encephalitozoon cuniculi TATA box binding protein, full length (Encephalitozoon cuniculi)

Encephalitozoon cuniculi Mot1 N-terminal domain (HEAT domain, residues 1–779) (domain or fragment)
stoichiometry N: 1 Mot1:TBP
